Holding throughout (assay): SPR
A general note: Surface plasmon resonance follows binding to a sensor surface in real time, without labels.

The target of experiment [1] is mFcγRII extracellular domain from NOD SCID mice (ly17.1 variant), 6xHis (mouse) (UniProt P08101).
The target of experiment [2] is mFcγRII extracellular domain from SCID mice (ly17.2 variant), 6xHis (mouse) (UniProt P08101).
The target in experiment [3] is hIgG2 #1 (human).
The target of experiment [4] is mIgG1 #1 (mouse).
Experiment [5] concerns the target hIgG2 #2 (human).
Experiment [6] deals with mIgG2a #2 (mouse).
The target in experiment [7] is mIgG1 #2 (mouse).
The target in experiment [8] is mIgG2a #1 (mouse).
For experiment [9], the target named is hIgG1 #1 (human).
The target in experiment [10] is hIgG1 #2 (human).
Experiment [11] has as its target hIgG2 #1 (human). This is another data set of the same source.
For experiment [12], the target named is mIgG1 #1 (mouse). This is another data set of the same source.
Experiment [13] has as its target hIgG2 #2 (human). This is another data set of the same source.
The target of experiment [14] is mIgG2a #2 (mouse). The source holds these as a separate data set.
Experiment [15] has as its target mIgG1 #2 (mouse). This is another data set of the same source.
Experiment [16] deals with mIgG2a #1 (mouse). This is another data set of the same source.
The target of experiment [17] is hIgG1 #1 (human). This is another data set of the same source.
Experiment [18] deals with hIgG1 #2 (human). This is another data set of the same source.

Where two headings read alike, the source gives them in different places.

As a reminder, the Kd is the free concentration of one partner at which half of the binding sites on the other are occupied at equilibrium, for simple one-to-one binding. Lower therefore signals tighter binding.

Sequence of UniProt P08101 (P08101 1-207, change not shown): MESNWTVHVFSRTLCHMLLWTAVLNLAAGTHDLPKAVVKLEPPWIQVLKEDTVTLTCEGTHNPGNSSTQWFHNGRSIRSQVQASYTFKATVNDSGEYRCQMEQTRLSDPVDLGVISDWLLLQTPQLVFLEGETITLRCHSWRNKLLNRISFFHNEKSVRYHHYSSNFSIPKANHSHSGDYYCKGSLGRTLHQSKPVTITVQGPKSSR

Turning to Rituximab mIgG2a (antibody), the Kd was 2430 nM in [1] and 2630 nM in experiment [2].
In the case of Cetuximab (hIgG1) (antibody), the Kd was 4380 nM in [1] and 5420 nM in experiment [2].
Turning to Rituximab mIgG1 (antibody), the Kd in experiment [1] worked out at 2250 nM; in [2], 2020 nM.

B1: Recombinant mFcγRII (R&D systems) (receptor)
chain: THDLPKAVVKLEPPWIQVLKEDTVTLTCEGTHNPGNSSTQWFHNGRSIRSQVQASYTFKATVNDSGEYRCQMEQTRLSDPVDLGVISDWLLLQTPQLVFLEGETITLRCHSWRNKLLNRISFFHNEKSVRYHHYSSNFSIPKANHSHSGDYYCKGSLGRTLHQSKPVTITVQGPKSSRSLP
Take B1: the Kd in the experiment with hIgG2 #1 (human) [3] was 7.65 µM; with mIgG1 #1 (mouse) [4], 274 nM; in the experiment with hIgG2 #2 (human) [5], 14.5 µM; in the experiment with mIgG2a #2 (mouse) [6], 1100 nM; in the experiment with mIgG1 #2 (mouse) [7], 498 nM; with mIgG2a #1 (mouse) [8], 1180 nM. The Kd worked out at 3.02 µM in the experiment with hIgG1 #1 (human) [9]; 6.61 µM in the experiment with hIgG1 #2 (human) [10]; 210 nM with hIgG2 #1 (human) [11]; 2.77 nM in the experiment with mIgG1 #1 (mouse) [12]; 218 nM with hIgG2 #2 (human) [13]; 24.1 nM in the experiment with mIgG2a #2 (mouse) [14]. Moreover, the Kd amounted to 3.62 nM with mIgG1 #2 (mouse) [15], 23.6 nM in the experiment with mIgG2a #1 (mouse) [16], 49.2 nM in the experiment with hIgG1 #1 (human) [17] and 79 nM in the experiment with hIgG1 #2 (human) [18].

Source of the values: article PMC7304853.
